“And” between values parts separate entries of the source, which are not always exact repeats. Equal values may be shown once.
B1: His6-BakΔTM (recombinant His-tagged Bak lacking the transmembrane domain, aa 1–186) (domain or fragment, UniProt Q16611 1-186, looked up)
chain: MASGQGPGPPRQECGEPALPSASEEQVAQDTEEVFRSYVFYRHQQEQEAEGVAAPADPEMVTLPLQPSSTMGQVGRQLAIIGDDINRRYDSEFQTMLQHLQPTAENAYEYFTKIATSLFESGINWGRVVALLGFGYRLALHVYQHGLTGFLGQVTRFVVDFMLHHCIARWIAQRGGWVAALNLGNG
B2: GST–procaspase 8 (full-length procaspase 8 fused to GST) (natural protein, UniProt Q14790 1-479, looked up)
chain: MDFSRNLYDIGEQLDSEDLASLKFLSLDYIPQRKQEPIKDALMLFQRLQEKRMLEESNLSFLKELLFRINRLDLLITYLNTRKEEMERELQTPGRAQISAYRVMLYQISEEVSRSELRSFKFLLQEEISKCKLDDDMNLLDIFIEMEKRVILGEGKLDILKRVCAQINKSLLKIINDYEEFSKERSSSLEGSPDEFSNGEELCGVMTISDSPREQDSESQTLDKVYQMKSKPRGYCLIINNHNFAKAREKVPKLHSIRDRNGTHLDAGALTTTFEELHFEIKPHDDCTVEQIYEILKIYQLMDHSNMDCFICCILSHGDKGIIYGTDGQEAPIYELTSQFTGLKCPSLAGKPKVFFIQACQGDNYQKGIPVETDSEEQPYLEMDLSSPQTRYIPDEADFLLGMATVNNCVSYRNPAEGTWYIQSLCQSLRERCPRGDDILTILTEVNYEVSNKDDKKNMGKQMPQPTFTLRKKLVFPSD

Tests used:
GST-Casp8p41 = GST-Casp8p41 (UniProt Q14790 1-355); assay: SPR
GST-Casp8p41 V150A/L157A = GST-Casp8p41 V150A/L157A (UniProt Q14790 1-355, V150A | L157A); assay: SPR
GST-Casp8p41 V150E/L157K = GST-Casp8p41 V150E/L157K (UniProt Q14790 1-355, V150E | L157K); assay: SPR
cross-linking = biological target: the molecule itself; assay: cross-linking
[1] = biological target: B1; assay: SPR

B1
Kd (GST-Casp8p41): 16 nM and 19 nM
Kd (GST-Casp8p41 V150A/L157A): 22 nM
Kd (GST-Casp8p41 V150E/L157K): 400 nM
stoichiometry N (cross-linking): 2

B2
fold less tight binding than GST-Casp8p41 [1]: 100 fold

RPEIWIAQELRRIGDEFNAYYARRVF [Bim BH3 peptide]
binding result [1]: binds

Source: article PMC4178959 (The Journal of Cell Biology, 2014)
